The source of these data is patent publication WO2016170039A1 (dated 2016).

The target of this test is T1, human angiopoietin 2 (human, UniProt O15123 19-496, limits assumed).
T1 construct: Bought (R&D Systems Cat.No. 623-AN) or produced in house; also called ANG-2; human ANG-2
T1 sequence: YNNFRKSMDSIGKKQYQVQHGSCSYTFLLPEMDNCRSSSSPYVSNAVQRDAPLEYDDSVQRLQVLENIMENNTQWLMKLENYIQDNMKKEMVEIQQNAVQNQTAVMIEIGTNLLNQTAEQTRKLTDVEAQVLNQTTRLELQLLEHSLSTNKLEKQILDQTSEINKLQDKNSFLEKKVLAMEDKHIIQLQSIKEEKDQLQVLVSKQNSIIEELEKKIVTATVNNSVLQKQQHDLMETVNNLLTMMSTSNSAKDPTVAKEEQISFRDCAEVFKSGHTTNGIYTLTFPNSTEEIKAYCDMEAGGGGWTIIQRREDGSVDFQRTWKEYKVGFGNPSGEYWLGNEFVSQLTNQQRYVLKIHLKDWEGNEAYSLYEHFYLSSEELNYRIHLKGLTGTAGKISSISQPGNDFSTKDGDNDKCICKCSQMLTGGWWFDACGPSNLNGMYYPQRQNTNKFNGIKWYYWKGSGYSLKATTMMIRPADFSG
In words: ANG-2/Tie2 receptor interaction ELISA; antibody pre-incubated with ANG-2; the IC50 (Table 2) is not given.

B1: <ANG-2> LC06 (antibody, IgG1, V domains shown)
VH: not shown
VL: QPGLTQPPSVSVAPGQTARITCGGNNIGSKSVHWYQQKPGQAPVLVVYDDSDRPSGIPERFSGSNSGNTATLTISRVEAGDEADYYCQVWDSSSDHYVFGTGTKVTVLG
For the molecule B1, the binding result is “binds”.
